According to article PMC8217331 (Neuron, 2021):

B1: GST-AChR-α (loop between 3rd and 4th transmembrane domains) (domain or fragment, UniProt P04756 317-428, looked up)
chain: NTHHRSPSTHIMPEWVRKVFIDTIPNIMFFSTMKRPSRDKQEKRIFTEDIDISDISGKPGPPPMGFHSPLIKHPEVKSAIEGVKYIAETMKSDQESNNAAEEWKYVAMVMDH
modifications: CF555 label (Mix-n-Stain CF555)
B2: GST-AChR-β (loop between 3rd and 4th transmembrane domains) (domain or fragment, UniProt P09690 333-469, looked up)
chain: HHRSPHTHQMPFWVRQIFIHKLPPYLGLKRPKPERDQLPEPHHSLSPRSGWGRGTDEYFIRKPPSDFLFPKLNRFQPESSAPDLRRFIDGPTRAVGLPQELREVISSISYMARQLQEQEDHDALKEDWQFVAMVVDR
modifications: CF555 label (Mix-n-Stain CF555)
B3: GST-β-dystroglycan (aa 773Y-893P) (domain or fragment, UniProt Q62165 773-893, looked up)
chain: YRKKRKGKLTLEDQATFIKKGVPIIFADELDDSKPPPSSSMPLILQEEKAPLPPPEYPNQSMPETTPLNQDTVGEYTPLRDEDPNAPPYQPPPPFTAPMEGKGSRPKNMTPYRSPPPYVPP
modifications: CF555 label (Mix-n-Stain CF555)
B4: Rapsn-EGFP, purified (natural protein, UniProt P12672 1-412, looked up)
chain: MGQDQTKQQIEKGLQLYQSNQTEKALQVWMKVLEKGSDLVGRFRVLGCLVTAHSEMGRYKEMLKFAVVQIDTARGLEDADFLLESYLNLARSNEKLCEFHKTISYCKTCLGLPGTRAGAQLGGQVSLSMGNAFLGLSLFQKALESFEKALRYAHNNDDTMLECRVCCSLGSFYAQVKDYEKALFFPCKAAELVNDYGKGWSLKYRAMSQYHMAVAYRLLGHLGSAMECCEESMKIALQHGDRPLQALCLLCFADIHRSRGDLETAFPRYDSAMSIMTEIGNRLGQVHVLLGVAKCWMARKVQDKALDAIEKAQDLAEEVGNKLSQLKLHCLSESIYRSKGLQRELRTHVVRFHECVEETELYCGLCGESIGERNSRLQALPCSHIFHLRCLQNNGTRSCPNCRRSSMKPGFV
B5: GST-MACF1 (aa 1M-293I) (domain or fragment, UniProt Q9QXZ0 1-293, looked up)
chain: MSSSDEETLSERSCRSERSCRSERSYRSERSGSLSPCPPGDTLPWNLPLHEQKKRKSQDSVLDPAERAVVRVADERDRVQKKTFTKWVNKHLMKVRKHINDLYEDLRDGHNLISLLEVLSGIKLPREKGRMRFHRLQNVQIALDFLKQRQVKLVNIRNDDITDGNPKLTLGLIWTIILHFQISDIYISGESGDMSAKEKLLLWTQKVTAGYTGVKCTNFSSCWSDGKMFNALIHRYRPDLVDMERVQVQSNRENLEQAFEVAERLGVTRLLDAEDVDVPSPDEKSVITYVSSI
modifications: CF555 label (Mix-n-Stain CF555)

Tests used:
Rapsn-EGFP, purified = molecular target: B4; assay: co-condensation into droplets
[1] = molecular target: α-actinin2 (aa 1M-894L), purified ( (the printed UniProt entry …, UniProt Q9JI91 1-894, CF555 label (Mix-n-Stain CF555))); assay: co-condensation into droplets
Sequence of α-actinin2 (aa 1M-894L), purified ( (Q9JI91 whole entry): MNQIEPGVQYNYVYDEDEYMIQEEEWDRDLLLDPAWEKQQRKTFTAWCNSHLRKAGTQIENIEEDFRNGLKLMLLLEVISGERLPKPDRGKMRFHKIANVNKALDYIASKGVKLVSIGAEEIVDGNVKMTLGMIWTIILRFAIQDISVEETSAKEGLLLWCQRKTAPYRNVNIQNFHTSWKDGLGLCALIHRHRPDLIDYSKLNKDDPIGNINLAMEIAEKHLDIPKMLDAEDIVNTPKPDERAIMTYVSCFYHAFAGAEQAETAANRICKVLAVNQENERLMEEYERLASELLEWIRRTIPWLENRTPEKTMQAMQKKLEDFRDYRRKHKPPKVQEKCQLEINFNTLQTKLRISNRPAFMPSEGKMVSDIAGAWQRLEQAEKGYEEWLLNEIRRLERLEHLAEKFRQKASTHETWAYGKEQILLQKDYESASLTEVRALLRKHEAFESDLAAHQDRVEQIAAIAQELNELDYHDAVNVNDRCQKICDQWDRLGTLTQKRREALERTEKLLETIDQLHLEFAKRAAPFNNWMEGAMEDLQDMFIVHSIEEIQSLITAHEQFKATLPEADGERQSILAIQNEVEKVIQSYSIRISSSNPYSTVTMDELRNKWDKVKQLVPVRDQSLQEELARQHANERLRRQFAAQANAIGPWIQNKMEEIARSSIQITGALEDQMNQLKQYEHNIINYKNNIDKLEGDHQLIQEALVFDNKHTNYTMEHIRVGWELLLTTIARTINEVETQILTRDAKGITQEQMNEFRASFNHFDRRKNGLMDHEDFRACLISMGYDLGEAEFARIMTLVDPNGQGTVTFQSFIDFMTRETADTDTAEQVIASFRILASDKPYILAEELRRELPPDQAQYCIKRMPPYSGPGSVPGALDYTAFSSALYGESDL

Row | Binder | binding result (Rapsn-EGFP, purified) | binding result [1]
1 | B1 | binds | –
2 | B2 | binds | –
3 | B3 | binds | –
4 | B4 | – | binds
5 | B5 | binds | –
